Data published in patent publication US9603922B2, “Modulation of NKT cell activity with antigen-loaded CD1d molecules” (VACCINEX, INC., priority 2007, dated 2017).

Assays:
[1] = test system: B16 melanoma cells; test: Pretreatment and B16 melanoma lung metastasis; assay type: in vivo, mouse; details: for Lung metastasis / tumor resistance in pretreated mice: 5 i.v. pretreatments every 3 days, then 700,000 B16 cells co-injected with same agent; for Lung metastasis / tumor development in naïve mice: no pretreatment, agent co-injected with B16 cells
Procedure: FIG. 4: Sustained iNKT activation in vivo due to repeated injections of αGalCer/sCD1d prevents formation of lung metastases. Mice were treated 5 times with PBS (Control, white), αGalCer (0.4 μg, light grey), or αGalCer/sCD1d (sCD1d, 20 μg, black) and then grafted with 700,000 B16 wild type cells plus co-injection of the respective treatment. 2 naive groups were included that had no pretreatment and got only tumor cell graft+co-injection of αGalCer (striped grey) or αGalCer/sCD1d (sCD1d, dark striped grey) respectively. Lung metastases formation was analysed 2 weeks after graft with the ImageJ k-means clustering program and results are expressed as percent of black metastatic surface over total lung surface. P values for αGalCer/sCD1d pretreated and naive+αGalCer groups compared to control *P<0.04, and compared to αGalCer pretreated group *P<0.02.
(§1) Quantification of lung metastasis. Metastatic nodule surface area was measured on 2560×1920 pixels photographs of the whole organs, taken on an Zeiss STEMI SV11 dissection microscope (Carl Zeiss, Jena, Germany) equipped with a PROGRES-C10plus Color Camera (Jenoptik, Jena, Germany). Each image was analyzed with the ImageJ program (rsb.info.nih.gov/ij/) using a k-means clustering algorithm (plugin available on ij-plugins.sourceforge.net). Images were segmented into 9 segments cluster tolerance 1×10−4, randomization seed: 48) and the appropriate segments were selected based on the color of the metastasis reaching the surface of the organ. The area of the sum of selected color segments was expressed as percentage of the area occupied by the lungs. Both sides of the lung were analyzed. This method takes into account both the number and the size of the tumor nodules. Since nodules are often heterogenous the percentage of metastatic lung surface area is a more sensitive measure of tumor growth than just counting tumor nodules.
This is most likely due to the anergic state of iNKT cells induced by free αGalCer. In contrast, in naïve mice, opposite results were obtained. […] The key finding is that multiple prior injections of αGalCer loaded recombinant CD1d molecules but not of free αGalCer confers resistance to tumor development.

[2] = test system: B16 wild type cells; test: Precoating experiment, lung metastases of B16 wild type cells; assay type: in vivo, mouse; details: cells pre-incubated with agent, injected i.v. into naïve mice
Procedure: FIG. 5: Precoating experiment.
as §1
This affect may be caused by a transient association of the αGalCer with the tumor cell surface, or by transient uptake of the free αGalCer.

[3] = test system: splenocytes, CD3+ T cells; test: Conventional T cells (CD3+) in splenocyte cultures of treated mice; assay type: cell-based, mouse; details: for Conventional T cell population of CD3+ cells, in words: in vitro stimulation of splenocyte cultures; for Percentage of CD3+ cells of total spleen cells: in vitro stimulation, 7% without stimulation
Description: (§2) Cells were stained with anti NK1.1-PE and anti CD3-FITC and analysed by flow cytometry. NK cells are reported as NK1.1 positive/CD3 negative population. b c Induction of DC maturation and T cell proliferation by αGalCer/sCD1d activated NKT cells in vivo. Splenocytes were isolated after five treatments i.v. with either PBS (control), αGalCer, or αGalCer/sCD1d and cultured for 4 days with GM-CSF and then 3 more days with either PBS (control, white bars), αGalCer (grey bars), or αGalCer/sCD1d (sCD1d, black bars). Cells were then stained with anti CD11c-FITC and biotinylated anti CD40 and Streptavidin-PE to detect double positive mature DCs (c), or with anti NK1.1-PE and anti CD3-FITC to detect CD3 single positive T cells (d) by flow cytometry.
In absence of a specific antigen: Several reports have described the capacity of iNKT cells to transactivate NK, DC and T cells upon activation with free αGalCer or αGalCer-pulsed dendritic cells (Nieda, M., et al. Blood 103:383-389 (2004); Hermans, I. F., et al. J Immunol 171:5140-5147 (2003); Smyth, M. J., et al. J Exp Med 201:1973-1985 (2005)). […] Regarding NK cells, their frequency indeed increased after a single injection of free αGalCer or of αGalCer/sCD1d with or without anti HER2, as shown by the increase of the NK1.1^+ CD3^− cell population (FIG. 7a). Markers for DC maturation were also analyzed after 5 days in vitro culture of splenocytes isolated at the end of a systemic treatment, as described in Example 1. […] From 7% of total spleen cells without stimulation, percentage of CD3^+ cells increased to 17, 27 and 30%, respectively in naïve, αGalCer and αGalCer/sCD1d treated mice.

[4] = test system: liver NK cells; test: Transactivation of NK cells: liver NK1.1+ CD3- cells after single injection; assay type: in vivo, mouse; details: 20 hours after single i.p. injection
Description: as §2
(§3) In absence of a specific antigen: Several reports have described the capacity of iNKT cells to transactivate NK, DC and T cells upon activation with free αGalCer or αGalCer-pulsed dendritic cells (Nieda, M., et al. Blood 103:383-389 (2004); Hermans, I. F., et al. J Immunol 171:5140-5147 (2003); Smyth, M. J., et al. J Exp Med 201:1973-1985 (2005)). […] Markers for DC maturation were also analyzed after 5 days in vitro culture of splenocytes isolated at the end of a systemic treatment, as described in Example 1. […]

[5] = test system: splenocytes, CD11c+ CD40+ DC; test: DC maturation (CD11c+ CD40+) in splenocyte cultures of treated mice; assay type: cell-based, mouse; details: in vitro stimulation of splenocytes isolated after systemic treatment
Description: as §2, §3

CCCCCCCCCCCCCCCCCCCCCCCCCC(=O)N[C@@H](CO[C@H]1O[C@H](CO)[C@H](O)[C@H](O)[C@H]1O)[C@H](O)[C@H](O)CCCCCCCCCCCCCC [αGalCer, α-galactosylceramide, reference compound] was tested, and the “Lung metastasis / tumor resistance in pretreated mice” value [1] was “not able to block lung metastasis”, the “Lung metastasis / tumor development in naïve mice” value [1] was “completely blocked tumor development” and the “Lung metastases of precoated B16 wild type cells” value [2] was “completely inhibited tumor development”. For the same molecule, the “Conventional T cell population of CD3+ cells, in words” value [3] was “no significant effect”, the “NK cell frequency (NK1.1+ CD3- population)” value [4] was “increased” and the “Percentage of CD11c+ CD40+ double positive cells” value [5] was “had no effect in any of the mice”.

B1: αGalCer/sCD1d: soluble monomeric mouse β2m-CD1d, His-tagged, loaded with αGalCer (protein)
chain: IQKTPQIQVYSRHPPENGKPNILNCYVTQFHPPHIEIQMLKNGKKIPKVEMSDMSFSKDWSFYILAHTEFTPTETDTYACRVKHASMAEPKTVYWDRDMGGGGSGGSGSGGGSEAQQKNYTFRCLQMSSFANRSWSRTDSVVWLGDLQTHRWSNDSATISFTKPWSQGKLSNQQWEKLQHMFQVYRVSFTRDIQELVKMMSPKEDYPIEIQLSAGCEMYPGNASESFLHVAFQGKYVVRFWGTSWQTVPGAPSWLDLPIKVLNADQGTSATVQMLLNDTCPLFVRGLLEAGKSDLEKQEKPVAWLSSVPSSADGHRQLVCHVSGFYPKPVWVMWMRGDQEQQGTHRGDFLPNADETWYLQATLDVEAGEEAGLACRVKHSSLGGQDIILYWSSGSGGHHHHHH
For B1, the “Lung metastasis / tumor resistance in pretreated mice” value [1] was “rendered them resistant to B16 melanoma cells”, the “Lung metastasis / tumor development in naïve mice” value [1] was “had no effect” and the “Lung metastases of precoated B16 wild type cells” value [2] was “not able to block tumor growth”. For the same molecule, the “Conventional T cell population of CD3+ cells, in words” value [3] was “significantly increased”, the “Percentage of CD3+ cells of total spleen cells” value ([3]; splenocytes of naïve mice) was 17% and the “Percentage of CD3+ cells of total spleen cells” value ([3]; splenocytes of αGalCer treated mice) was 27%. For the same molecule, the “Percentage of CD3+ cells of total spleen cells” value ([3]; splenocytes of αGalCer/sCD1d treated mice) was 30%, the “NK cell frequency (NK1.1+ CD3- population)” value [4] was “increased” and the “Percentage of CD11c+ CD40+ double positive cells” value [5] was “increased”.
